Values quoted from earlier work, collected in publication PMC11901361.

Target: folate receptor alpha (Homo sapiens) (UniProt P15328)
Sequence (P15328 25-234): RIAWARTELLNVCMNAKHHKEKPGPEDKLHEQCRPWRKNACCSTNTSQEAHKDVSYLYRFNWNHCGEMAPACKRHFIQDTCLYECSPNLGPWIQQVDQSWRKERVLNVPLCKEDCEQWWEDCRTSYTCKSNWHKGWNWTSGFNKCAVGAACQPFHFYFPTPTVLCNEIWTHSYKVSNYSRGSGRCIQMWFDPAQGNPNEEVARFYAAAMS

Kd: 2000 nM
Substance: farletuzumab
